# B1: inosine-guanosine kinase (Escherichia coli K-12) (protein)
# chain: MKFPGKRKSKHYFPVNARDPLLQQFQPENETSAAWVVGIDQTLVDIEAKVDDEFIERYGLSAGHSLVIEDDVAEALYQELKQKNLITHQFAGGTIGNTMHNYSVLADDRSVLLGVMCSNIEIGSYAYRYLCNTSSRTDLNYLQGVDGPIGRCFTLIGESGERTFAISPGHMNQLRAESIPEDVIAGASALVLTSYLVRCKPGEPMPEATMKAIEYAKKYNVPVVLTLGTKFVIAENPQWWQQFLKDHVSILAMNEDEAEALTGESDPLLASDKALDWVDLVLCTAGPIGLYMAGFTEDEAKRKTQHPLLPGAIAEFNQYEFSRAMRHKDCQNPLRVYSHIAPYMGGPEKIMNTNGAGDGALAALLHDITANSYHRSNVPNSSKHKFTWLTYSSLAQVCKYANRVSYQVLNQHSPRLTRGLPEREDSLEESYWDR
# notes: made in house; host or cells: Escherichia coli
# What was measured:
# [1] = Optimum pH and optimum temperature of the enzyme activity; format: biochemical, Escherichia coli; conditions: 30° C., 20 minutes; PIPES, HEPES, TAPS, CHES buffers 100 mM
# Description: The activity of the inosine-guanosine kinase obtained is determined as follows. A reaction solution (hereafter referred to as reaction solution a) having a composition of 100 mM HEPES buffer (pH 7.2), 10 mM MgSO4, 50 mM KCl, 1 mM ATP and 1 mM inosine is brought into contact with the inosine-guanosine […] During the course of reaction, a part of the reaction solution is subjected to sampling intermittently. After the reaction solution is diluted to 1/20 with 0.2M NaH2 PO4 (adjusted the pH to 2.6 with H3 PO4) to stop the reaction, an amount of 5'-IMP in the stopped reaction solution is quantitatively determined by HPLC. Analysis by HPLC is made by using 0.2M NaH2 PO4 (pH 2.6) at a flow rate of 1 ml/min. as an eluting solution and Asahipak GS-320H (manufactured by Asahi Chemical Co., Ltd.) as a column. Detection of components was made by the absorbance at UV absorbance at 254 nm as an index. Quantitative determination was made by comparing absorbancy with that of the standard. […]
# In the method for determination of inosine-guanosine kinase activity described above, the activity is determined by varying the temperature of 0° to 50° C. and 31° to 41° C. […]
# Km value determination [2] = substrate: OC[C@H]1O[C@@H](n2cnc3c(O)ncnc32)[C@H](O)[C@@H]1O; experiment: Km value determination; format: biochemical, Escherichia coli; conditions: other: 2 mM ATP, 10 mM MgSO4, 300 mM KCl, 0.1M HEPES buffer (pH 7.2)
# Km value determination [3] = substrate: Nc1nc2c(ncn2[C@@H]2O[C@H](CO)[C@@H](O)[C@H]2O)c(=O)[nH]1; experiment: Km value determination; format: biochemical, Escherichia coli; conditions: other: 2 mM ATP, 10 mM MgSO4, 300 mM KCl, 0.1M HEPES buffer (pH 7.2)
# [4] = pH, temperature and storage stability of the enzyme (residual activity); format: physicochemical, Escherichia coli
# Description: This enzyme is treated at 4° C. for 16 hours in an aqueous solution containing 50 mM buffer (CHES; pH 10.0-9.0, TAPS; pH 8.2, HEPES; pH 8.3-7.3 or PIPES; pH 6.6) and 5 mM […] under both conditions in the absence of KCl and in the presence of 250 mM KCl. After the treatment, the activity is determined. Where treated in a pH range of 6.6 to 9.0, the treated enzyme maintains the residual activity of 90% or more than the activity of intact standard enzyme and stably keeps its activity in a pH range of 6.6 to 9.0. The addition of KCl accelerates storage stability.
# A reaction solution composed of 20% glycerol, 50 mM Tris-hydrochloride buffer (pH 8), 5 mM β-mercaptoethanol and 100 mM NaCl is contacted with inosine-guanosine kinase in a concentration of about 10 μg protein/ml and treated at a temperature of 26° to 50° C. for 15 minutes to determine the residual activity at each temperature. As the result, since treatment at 40° C. or lower inactivates the enzyme by only 20% or less, the enzyme is stable up to 40° C. In contrast, the activity is rapidly lost by treatment at 50° C.
# After 6 g of the -20° C.-stored cells which had been obtained in (6) was suspended in 24 ml of purification buffer [20% glycerol, 50 mM Tris-hydrochloride buffer (pH 8) and 5 mM β-mercaptoethanol], the suspension was disrupted with a homogenizer (manufactured by Brown Biotech Co., Ltd., glass bead diameter of 0.1 mm). The homogenate was centrifuged to give about 20 ml of the supernatant. Protamine sulfate was added to the supernatant in a final concentration of 0.4% followed by centrifugation. Thus high molecular nucleic acid components were removed as precipitates. The resulting supernatant was passed through Sephadex G-50 column which had been previously equilibrated with the purification buffer. The column was eluted with the purification buffer to give about 30 ml of desalted active fraction. After the fraction was passed through DEAE Sepharose column which had been previously equilibrated with the purification buffer, 60 ml of the purification buffer containing 0.1M NaCl was added thereto. Then the desired enzyme was eluted with 200 ml of the purification buffer having an NaCl linear density slope of 0.1M to 0.6M. From the active fractions eluted, 3 ml of the fraction having the highest enzyme concentration was collected. This active fraction was passed through Sephacryl S-200 column and eluted with the purification buffer containing 0.1M NaCl. By gel filtration, the active fraction was collected. Finally 10 ml of purified enzyme (1.4 μg protein/ml) was obtained. This purified enzyme was analyzed by SDS-polyacrylamide electrophoresis but no impurity was detected. The enzyme is stably stored at -20° C. in the purification buffer containing 0.1M NaCl.
molecule,measurement,setting,value
B1,optimum pH,[1],6.9-8.2
same,Km,Km value determination [2],2100 µM
same,Km,Km value determination [3],6.1 µM
same,residual activity after pH treatment,"[4]; 4° C., 16 hours, pH range of 6.6 to 9.0, with or without 250 mM KCl, versus intact standard enzyme",≥ 90%
same,temperature up to which the enzyme is stable,"[4]; 15 minutes treatment, pH 8",up to 40 °C
same,storage stability (in words),[4]; -20° C. in purification buffer containing 0.1M NaCl,stably stored
same,inactivation by heat treatment,"[4]; treatment at 40° C. or lower, 15 minutes, pH 8",≤ 20%
same,activity after heat treatment (in words),"[4]; treatment at 50° C., 15 minutes",rapidly lost
